In the supplement of paper PMC12636428:

System: Saccharomyces cerevisiae
Assay: transcriptional activation domain activity (GFP:mCherry ratio, weighted mean of sorted bins, harmonized to initial dataset scale) (arbitrary fluorescence ratio units); higher = stronger transcriptional activation
Conditions: beta-estradiol 1 µM; induction time 4 h
In short: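 For this assay, yeast diploids with a GFP reporter carried barcoded protein tiles at URA3, each fused to an estradiol-inducible synthetic transcription factor. Induction was a 1:5 dilution into SC with 1 uM beta-estradiol for 4 hours at 30 °C, followed by sorting into 8 bins by GFP:mCherry ratio and barcode sequencing. Tiles under 50 reads were dropped, and activation activity was calculated as the read-weighted mean of bin median fluorescence, averaged across barcodes and linearly mapped onto the initial dataset scale.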

Sequence: MPNLGLRREWYKGDFSVKYTQLTLIYLVMCVWFPSCLGGYMLTLQYIMLLLIM
- transcriptional activation domain activity: 68600

Sequence: FQLWKSLNCAYSSVQVTSQGFSIGILFWTLLEYVLHRFLFHLDKLLPDHPIAL
- transcriptional activation domain activity: 63900

Sequence: LAQDPAGEQKKRRGRPPRYNVKLEPGEGDGAVTAPVKARKRKRESETPLSAPP
- transcriptional activation domain activity: 33600

Sequence: HSGVLRDVHVVFQDRSFCARLAEQIGRRLRMIYSNWRETCCMEMLITLSLRLF
- transcriptional activation domain activity: 73200

Sequence: MKLVRFLMKLNNETVTIELKNGSVIHGTITSVDPQMNTHLKSVKLSLRTAAPG
- transcriptional activation domain activity: 24700

Sequence: MLLALRMFEELKLFFLSFVFLSQFFFFIYLFLVHYCKWRMVTLPYSVFTFFLV
- transcriptional activation domain activity: 44000

Sequence: EASSDGEGAASASDASGDRELVKAKAKKKKKAAGEEGDKPKKKKKSSPKKAKE
- transcriptional activation domain activity: 27100

Sequence: QSQAPARKKGAGGKEGKKGKGGKEGKEKVEKESKKKRKAEAEVVVGDEAAAAA
- transcriptional activation domain activity: 33800

Sequence: GEGEGEVEAEVPTAAANEPVLEVQPKEPEPEAPAQPQQQPAAVKTTRPAPVSH
- transcriptional activation domain activity: 28800

Sequence: ALRLCRSLLFLCFPFTPIHFFWGSYSDFPPFFFLPAFPRLTLSLLLFYLLPFS
- transcriptional activation domain activity: 55100

Sequence: EIPIQLGCIHLHSLWMTYALLYQLIYPMMMIYNLVNCIYFGSGLQIAWWMFSI
- transcriptional activation domain activity: 44200

Sequence: YTRVVTRFKRLFVSSRGYTAFIPALFKVFCDVEHLAPIRSAIVFAWCRFYAVH
- transcriptional activation domain activity: 67300

Sequence: ARQSDDDGQVKVYQRGSASLVAMLLTNLAPNETLIALINLIADRPWLKALYAL
- transcriptional activation domain activity: 80500

Sequence: GRKPAAKPTPRNSSTTARGRKAKSEPESEDDKPLAKKGGAAATKQTKKPAVKK
- transcriptional activation domain activity: 22300

Sequence: MIVFSPISFVGTLWVVSCCLFFKFPLPLPFPLPLPFFFFVSLFFLYLSRKIRA
- transcriptional activation domain activity: 28200

Sequence: GSERRERRSERRRSRDRSGERRRSKREEGSSRRPQSPEDEDRQQRRHRRHRHR
- transcriptional activation domain activity: 16500

Sequence: FVEKGRERERGKGRRGGGGGAGEEQREGGGGGRGGGRGKTVVVVVRDVASSGD
- transcriptional activation domain activity: 25100

Sequence: SFLSPFCRWVGGSFFVIIWSLFFLSLLFSPPCQPGFISWSFWTAGFLVFFFLF
- transcriptional activation domain activity: 46500

Sequence: AEEEEDAEDEVVEEKIPAKRGRKPRGEKIEEVSSPAAAAPVRGKKAAAAAAKP
- transcriptional activation domain activity: 24200

Sequence: YYYFNYFYFYYFYYYFIIIIIILFYLILFLFLFLLLLLFIYFYFYFNYFYYLF
- transcriptional activation domain activity: 69700

Sequence: RNMRALRKTWQSSASEDGGGGGEGDEHPHLEDLEYTSREWGAFAQGLKLLAVS
- transcriptional activation domain activity: 70800

Sequence: IFNPLNWVFVQSSKVFPVDYILALLLVFDFFISSVVGIAFIGIRFLWVTLFRL
- transcriptional activation domain activity: 71500

Sequence: IHQASIAHHPAQHPQRKAHQHSRGGARPQHESQEATRRLGPRHPAHVAALHRR
- transcriptional activation domain activity: 30500

Sequence: LSHFLAGLHHSVLLAYFLYFFVLPFSLLCYSIFLLYFSFGLDGIILLFYYFIF
- transcriptional activation domain activity: 37100

Sequence: HHTLPYRFRLDGHAAYLGLFIHFLSVLVVVYIFRLEVCVRYRPGWMRCQCWWR
- transcriptional activation domain activity: 81600

Sequence: QYRYLTYSRWLVLLLYVFSWAFTVISMVLVTTNNANFVSCLLSILVCDVFYSG
- transcriptional activation domain activity: 39300

Sequence: KAKAGADGDAAPKKKKAASKKDSNGSDAEDSDGEAKPKPKLKKKAAAAGKAKA
- transcriptional activation domain activity: 29400

Sequence: DFKHPMEPLACNWEDCDFLGDDTCSIVNHINCQHGINFDIQFANPDSFLPGSI
- transcriptional activation domain activity: 141000

Sequence: KEVAAAEVAPADTAAAEAKPSKKEKKEKEKKPAEGPEGGKKKEKAAGGGGKAA
- transcriptional activation domain activity: 24500

Sequence: YLYLCLQLLYYCRYCVFAIYTCHLPFAYTCMLMLLATGPYFYGLFICLRYLCC
- transcriptional activation domain activity: 24900

Sequence: NCLKLGCDCLGMIHYFDGFICSHKGLPIKLENVICMHEQDNGLMWKHTHFRTN
- transcriptional activation domain activity: 40800

Sequence: YKCVGLSPDCKTAFFMNVTAFLVCPLANFESGKIPKTDLILLSKSSRECKYKA
- transcriptional activation domain activity: 29600

Sequence: LFGPLDFLDFLDFLDFLDFLDFLDFLDFLDLWTFWPWTFWTVGLFGLLDFLTF
- transcriptional activation domain activity: 46300

Sequence: NVQPTANAASANAAAAAAAAASNSYAIPENELLDEDTMNFISSLKNDLSNISN
- transcriptional activation domain activity: 59700

Sequence: SHSGVSRSGKRDASRSTSASGLGRNNGNASASGNGSRKGKRRSEGAGGRGKRV
- transcriptional activation domain activity: 13500

Sequence: FFGSLMGGALARPQDHWPELFAHPFWTTHPYFLPSASSDCVLLLIIFISLFFL
- transcriptional activation domain activity: 77800

Sequence: MGSNANKRREDGPKKEQLQKRVLHIRSVARSTKGGKIRSSSAIVVVGNGNGVG
- transcriptional activation domain activity: 42400

Sequence: TARVSEAKPARGRPSSAKAESPAVEAAPAVKKRGRGRPSKTKPETEEEEEAVP
- transcriptional activation domain activity: 39600

Sequence: FFFVCYILQTLGMIAYMIMIVYDYYQNYLWFRGVAVVQSSTFIGQWYVFFIWF
- transcriptional activation domain activity: 57700

Sequence: SSIRQMLKISLVRPLHMLLTEPVLFLFAVSLHPFRPRIYLMLEAIPLVFTRLY
- transcriptional activation domain activity: 40900

Sequence: YYVILLSIKLFGINSSLWALLITLTNWFNLYLSCRLIPNNIEGILTIIALYYW
- transcriptional activation domain activity: 66500

Sequence: DESPDADATKREKKKKKQKKRKVLQKEEEEEAEAARDKRERKKRKKSKSDIRR
- transcriptional activation domain activity: 39200

Sequence: MMKKKNWSYVVFWRGLPFFFFFFFFFFGEHFVLIFTSFVLFLLSLLCAGCVWV
- transcriptional activation domain activity: 25000

Sequence: TRGAPPAPPPPPPPPARPSESGAPPPPPPPPARGAPPPPPPPPPPAGGAPPPP
- transcriptional activation domain activity: 36500

Sequence: EAAVTSDDEAGPAKKAKRGSVFEKFGGKFKSHKAAEKEPEAKEEAKEEEAKPA
- transcriptional activation domain activity: 14000

Sequence: GVNAIGRRSSFQDVEAGKGGLIVPLRHLPPRGEDAGLVLQVHLNRAVSKLARM
- transcriptional activation domain activity: 65200

Sequence: NGLLRDVHVVFQDSSFCARLTEQIRRRLRMISSNWRETCCMEMLITLSLRLFH
- transcriptional activation domain activity: 45100

Sequence: MHILFLSLFFCFTLRFSLILLFGVIWLVKAFKYCHLVYWKLITYFNLLIFALY
- transcriptional activation domain activity: 54800

Sequence: DVNTGATSAPLSVGDVRHVAAPLEESGGCTLAMLVDDDGVMRIVVLRVTVDPV
- transcriptional activation domain activity: 35300

Sequence: PRQPRERKPRAEGEEGEHVEGQQEAGERRRERRPRKPRNKSAGGAGAGAEGAA
- transcriptional activation domain activity: 17100

Sequence: MGSLLLFMGIDEGSFLCGFFFSIFFLLLAFFTSYGCFCDKFFFLLYLLLLLRK
- transcriptional activation domain activity: 44300

Sequence: PYIVYPLKPCLSGPLCELYPSVMNLWAMCLHLILLCIQIPFLLSIPFWLLFPL
- transcriptional activation domain activity: 86900

Sequence: HSKHSAEGIVVSKYLMCFLLFCVWIFTHLVEVAVLLLQIIYNTLFILRSLFLH
- transcriptional activation domain activity: 63800

Sequence: HERLKLCNYQQAPDNIWCQYWFMGSFLVFFSNLDAVIDLPVMILLDLMPQICF
- transcriptional activation domain activity: 44100

Sequence: KEEESNELKSEQEPPSAVESIAAVMTPSDNGSRFYIKRRILIGNVSKYIAPER
- transcriptional activation domain activity: 23100

Sequence: ILHCFIIPLLFLVGFLSFLSLPCLLAVAFLIFMSILNLLLLGFLLLLWILLFF
- transcriptional activation domain activity: 41200

Sequence: LSLVLWCCGLKKSDLAIYLAWTFLVWPGPSPIFCHLSFLLLLLAFFLLPLLSV
- transcriptional activation domain activity: 78100

Sequence: RKLRDVHVPEVPLPLGPDGKADRKKSSLIMVHYVLMHSREVILLCLHRSFFAQ
- transcriptional activation domain activity: 65300

Sequence: LFFLSFLFFPFLSFLSFLFLFSFLFFPSFLFFPSLFLFLFSSPFHPIPFLFSS
- transcriptional activation domain activity: 57800

Sequence: FDYMICPVHDLGIPAPLSVFLSTVLNRAVTTIPYAPYQTHLFFLSCFVSLVAP
- transcriptional activation domain activity: 40500

Sequence: KRPTSHTLRPFFYFLLAVIYTVAHALVMIYQMISLNVAVNSYDNALLTLLVSN
- transcriptional activation domain activity: 52200
